In patent US20240076396A1 (Regeneron, published 2024):
Positions count from the first letter of the chain named. Names may count otherwise.

Experiments:
[1] = molecular target: T1, hGITR.mFc (dimeric recombinant human GITR ectodomain protein, mouse Fc fusion) (human); test: SPR Biacore 2000 25C; CHOt supernatant antibody captured on anti-human Fc; 50 nM hGITR.mFc
T1 construct: also called dimeric human GITR; dimeric GITR
T1 chain: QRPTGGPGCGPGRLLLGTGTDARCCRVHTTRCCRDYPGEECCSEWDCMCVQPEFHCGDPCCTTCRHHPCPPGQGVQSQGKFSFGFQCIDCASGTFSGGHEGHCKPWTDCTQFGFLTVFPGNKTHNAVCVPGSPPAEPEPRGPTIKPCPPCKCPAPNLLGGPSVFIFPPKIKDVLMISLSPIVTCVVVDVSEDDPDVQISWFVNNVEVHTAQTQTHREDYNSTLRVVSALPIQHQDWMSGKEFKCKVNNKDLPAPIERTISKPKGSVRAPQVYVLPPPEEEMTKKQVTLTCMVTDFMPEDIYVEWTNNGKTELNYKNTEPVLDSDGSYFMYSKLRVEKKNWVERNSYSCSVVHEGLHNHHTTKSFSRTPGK
Description: (§1) Biacore experiments for antibodies secreted in conditioned culture medium were performed as follows. Using a Biacore 2000 instrument at 25° C., antibodies were captured for 80 seconds at a flow rate of 8 uL/min on a CM5 anti-humanFc-coupled surface. Approximately 1000-2000 RU of each antibody were captured. 100 nM hGITR.mmH (soluble monomeric hGITR, SEQ ID NO: 45) or 50 nM hGITR.mFc (dimeric Macaca fasicularis GITR, SEQ ID NO: 46) were injected over this surface for 2 minutes at a flow rate of 50 uL/min. Dissociation was measured for 2 minutes. The KD and t_{1/2} were calculated by fitting the double-referenced sensorgrams to a 1:1 binding model.

[2] = molecular target: T1, hGITR.mFc (dimeric recombinant human …); test: SPR Biacore T-200; purified antibody captured on anti-human Fc; 5 nM hGITR.mFc
Description: (§2) For purified antibodies, Biacore experiments were performed as follows. Using a Biacore T-200 instrument, antibodies were captured for 30 seconds at a flow rate of 8 uL/min on a CM5 anti-humanFc-coupled surface. Approximately 120 RU of each antibody were captured. 10 nM hGITR.mmH (soluble monomeric hGITR, SEQ ID NO: 45) or 5 nM hGITR.mFc (dimeric Macaca fasicularis GITR, SEQ ID NO: 46) were injected over this surface for 5 minutes at a flow rate of 50 uL/min. Dissociation was measured for 10 min. The KD and t_{1/2} were calculated by fitting the double-referenced sensorgrams to a 1:1 binding model.

[3] = molecular target: T2, hGITR.mmH (soluble monomeric recombinant human GITR ectodomain protein) (human); test: SPR Biacore 2000 25C; CHOt supernatant antibody captured on anti-human Fc; 100 nM hGITR.mmH
T2 construct: also called monomeric human GITR
T2 chain: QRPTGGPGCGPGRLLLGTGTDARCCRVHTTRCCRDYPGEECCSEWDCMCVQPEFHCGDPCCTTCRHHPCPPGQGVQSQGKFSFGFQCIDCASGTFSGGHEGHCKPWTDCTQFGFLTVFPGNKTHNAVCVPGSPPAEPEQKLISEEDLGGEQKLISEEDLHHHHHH
Description: as §1

[4] = molecular target: T2, hGITR.mmH (soluble monomeric …); test: SPR Biacore T-200; purified antibody captured on anti-human Fc; 10 nM hGITR.mmH
Description: as §2

[5] = molecular target: T2, hGITR.mmH (soluble monomeric …); test: SPR Biacore 2000 25C; CHOt supernatant antibody captured on anti-human Fc
Description: as §1

[6] = molecular target: T1, hGITR.mFc (dimeric recombinant human …); test: as above
Description: as §1

B1: mAb2 (antibody, human IgG1, kappa, V domains shown)
VH: QVQLQESGPGLVKPSETLSLTCIVSGGSISGYFWNWIRQPPGKGLEWIGYIYYSGTTIYNPSLKSRFTISLDTSKNQFSLKLTSVTAADTAVYYCARESYEPSPRYFDHWGQGTLVTVSS
VL: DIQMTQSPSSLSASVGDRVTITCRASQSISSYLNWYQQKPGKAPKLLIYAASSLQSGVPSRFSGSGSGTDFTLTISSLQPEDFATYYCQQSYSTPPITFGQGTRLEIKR
notes: Human IgG1; N101E variant of CompAb1; also called N101E Variant; N101E
Kd [1]: 1.27 nM
t1/2 [1]: 34.9 min
Kd [2]: 0.902 nM
t1/2 [2]: 9.55 min
Kd [3]: 109 nM
t1/2 [3]: 0.99 min
Kd [4]: 11.3 nM
t1/2 [4]: 2.8 min

B2: CompAb1 (antibody, V domains shown)
VH: B1 VH with E101N
VL: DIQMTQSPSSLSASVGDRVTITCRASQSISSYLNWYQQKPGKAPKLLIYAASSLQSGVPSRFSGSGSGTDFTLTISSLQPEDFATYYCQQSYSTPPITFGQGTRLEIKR
notes: Human IgG1; also called WT; Sample Number 1
Kd [1]: 0.201 nM
t1/2 [1]: 194 min
Kd [2]: 0.137 nM
t1/2 [2]: 35.6 min
Kd [3]: 24.9 nM
t1/2 [3]: 4.56 min
Kd [4]: 1.51 nM
t1/2 [4]: 6.75 min

B3: CompAb1 heavy chain variant N101V (antibody, human IgG1, V domains shown)
VH: B1 VH with E101V
VL: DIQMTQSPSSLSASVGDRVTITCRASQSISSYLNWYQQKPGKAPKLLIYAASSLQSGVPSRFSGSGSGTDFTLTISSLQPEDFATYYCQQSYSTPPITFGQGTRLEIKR
notes: human IgG1 constant region; tested as CHOt supernatant; also called Sample Number 17
Kd [1]: 23.9 nM
t1/2 [1]: 0.98 min
Kd [3]: 29.1 nM
t1/2 [3]: 3.46 min

B4: CompAb1 heavy chain variant N101K (antibody, human IgG1, V domains shown)
VH: B1 VH with E101K
VL: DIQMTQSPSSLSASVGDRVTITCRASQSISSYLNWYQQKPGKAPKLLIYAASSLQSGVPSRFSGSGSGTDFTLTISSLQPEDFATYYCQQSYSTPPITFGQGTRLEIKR
notes: human IgG1 constant region; tested as CHOt supernatant; also called Sample Number 9
Kd [1]: 26.9 nM
t1/2 [1]: 0.99 min
Kd [3]: 17 nM
t1/2 [3]: 4.91 min

B5: CompAb1 heavy chain variant S103H (antibody, human IgG1, V domains shown)
VH: B1 VH with E101N, S103H
VL: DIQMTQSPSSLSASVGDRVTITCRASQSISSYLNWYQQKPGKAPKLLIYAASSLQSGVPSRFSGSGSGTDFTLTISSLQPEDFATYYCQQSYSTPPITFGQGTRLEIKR
notes: human IgG1 constant region; tested as CHOt supernatant; also called Sample Number 25
Kd [1]: 6.68 nM
t1/2 [1]: 4.63 min
Kd [3]: 12.6 nM
t1/2 [3]: 16.4 min

B6: CompAb1 heavy chain variant N101R (antibody, human IgG1, V domains shown)
VH: B1 VH with E101R
VL: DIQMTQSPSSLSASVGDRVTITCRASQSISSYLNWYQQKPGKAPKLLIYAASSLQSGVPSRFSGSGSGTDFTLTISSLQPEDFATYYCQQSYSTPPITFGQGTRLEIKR
notes: human IgG1 constant region; tested as CHOt supernatant; also called Sample Number 14
Kd [1]: 29.4 nM
t1/2 [1]: 0.86 min

B7: CompAb1 heavy chain variant S103D (antibody, human IgG1, V domains shown)
VH: B1 VH with E101N, S103D
VL: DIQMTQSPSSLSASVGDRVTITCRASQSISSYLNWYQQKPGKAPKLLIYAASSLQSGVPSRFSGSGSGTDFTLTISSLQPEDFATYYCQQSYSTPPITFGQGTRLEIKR
notes: human IgG1 constant region; tested as CHOt supernatant; also called Sample Number 21
Kd [1]: 0.595 nM
t1/2 [1]: 65 min
Kd [3]: 77.1 nM
t1/2 [3]: 1.01 min

B8: CompAb1 heavy chain variant S103K (antibody, human IgG1, V domains shown)
VH: B1 VH with E101N, S103K
VL: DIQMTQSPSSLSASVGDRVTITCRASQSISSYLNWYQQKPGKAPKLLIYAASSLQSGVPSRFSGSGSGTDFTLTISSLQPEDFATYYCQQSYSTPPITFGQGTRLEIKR
notes: human IgG1 constant region; tested as CHOt supernatant; also called Sample Number 27
binding result [5]: no binding (tested: 100 nM hGITR.mmH)
Kd [1]: 47.5 nM
t1/2 [1]: 0.64 min

B9: CompAb1 heavy chain variant N101A (antibody, human IgG1, V domains shown)
VH: B1 VH with E101A
VL: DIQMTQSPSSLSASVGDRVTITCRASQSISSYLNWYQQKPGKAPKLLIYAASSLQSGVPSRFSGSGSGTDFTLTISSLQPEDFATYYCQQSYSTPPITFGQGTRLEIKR
notes: human IgG1 constant region; tested as CHOt supernatant; also called Sample Number 2
binding result [5]: no binding (tested: 100 nM hGITR.mmH)
Kd [1]: 42.4 nM
t1/2 [1]: 0.47 min

B10: CompAb1 heavy chain variant S103Y (antibody, human IgG1, V domains shown)
VH: B1 VH with E101N, S103Y
VL: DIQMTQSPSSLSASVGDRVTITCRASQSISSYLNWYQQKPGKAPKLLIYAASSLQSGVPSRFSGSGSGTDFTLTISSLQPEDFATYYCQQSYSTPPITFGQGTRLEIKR
notes: human IgG1 constant region; tested as CHOt supernatant; also called Sample Number 37
Kd [1]: 3.03 nM
t1/2 [1]: 10.4 min
Kd [3]: 4.39 nM
t1/2 [3]: 26.6 min

B11: CompAb1 heavy chain variant N101F (antibody, human IgG1, V domains shown)
VH: B1 VH with E101F
VL: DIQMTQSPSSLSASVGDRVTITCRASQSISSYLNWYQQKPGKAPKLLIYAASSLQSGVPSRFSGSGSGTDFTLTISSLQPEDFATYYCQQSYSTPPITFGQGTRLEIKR
notes: human IgG1 constant region; tested as CHOt supernatant; also called Sample Number 5
binding result [6]: no binding (tested: 50 nM hGITR.mFc)
binding result [5]: no binding (tested: 100 nM hGITR.mmH)

B12: CompAb1 heavy chain variant S103V (antibody, human IgG1, V domains shown)
VH: B1 VH with E101N, S103V
VL: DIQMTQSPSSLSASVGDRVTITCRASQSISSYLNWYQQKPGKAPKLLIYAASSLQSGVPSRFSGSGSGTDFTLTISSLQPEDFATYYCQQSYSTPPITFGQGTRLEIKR
notes: human IgG1 constant region; tested as CHOt supernatant; also called Sample Number 35
Kd [1]: 3.82 nM
t1/2 [1]: 7.8 min
Kd [3]: 7.39 nM
t1/2 [3]: 14.7 min

B13: mAb3 (antibody, human IgG1, kappa, V domains shown)
VH: B1 VH with E101S
VL: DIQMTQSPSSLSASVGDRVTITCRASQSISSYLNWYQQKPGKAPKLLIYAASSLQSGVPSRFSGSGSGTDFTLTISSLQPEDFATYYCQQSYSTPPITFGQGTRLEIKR
notes: Human IgG1; N101S variant of CompAb1; also called N101S Variant; N101S
Kd [1]: 0.908 nM
t1/2 [1]: 37.7 min
Kd [2]: 0.882 nM
t1/2 [2]: 5.56 min
Kd [3]: 81.9 nM
t1/2 [3]: 0.92 min
Kd [4]: 6.05 nM
t1/2 [4]: 4.65 min

B14: CompAb1 heavy chain variant S103T (antibody, human IgG1, V domains shown)
VH: B1 VH with E101N, S103T
VL: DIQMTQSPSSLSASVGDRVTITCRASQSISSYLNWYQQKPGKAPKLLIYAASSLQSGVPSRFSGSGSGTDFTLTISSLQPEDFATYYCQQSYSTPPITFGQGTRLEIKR
notes: human IgG1 constant region; tested as CHOt supernatant; also called Sample Number 34
Kd [1]: 0.127 nM
t1/2 [1]: 249 min
Kd [3]: 29.6 nM
t1/2 [3]: 3.88 min

B15: CompAb1 heavy chain variant S103P (antibody, human IgG1, V domains shown)
VH: B1 VH with E101N, S103P
VL: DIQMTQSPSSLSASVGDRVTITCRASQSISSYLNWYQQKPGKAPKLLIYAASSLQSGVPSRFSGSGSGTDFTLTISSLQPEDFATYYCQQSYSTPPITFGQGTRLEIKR
notes: human IgG1 constant region; tested as CHOt supernatant; also called Sample Number 31
Kd [1]: 7.79 nM
t1/2 [1]: 2.92 min
Kd [3]: 28.4 nM
t1/2 [3]: 11.2 min
